Experimental findings from patent US20100034834A1 are described below.

Where only a bound is given, the exact number is not on record here.

The target of assay [1] is g9-154 (gp100) peptide … presented on peptide-pulsed T2 cells (UniProt P61769). As to the kind of experiment: cell-based or functional assay.
In assay [2] the target is NY-ESO-1 peptide … presented on peptide-pulsed T2 cells (UniProt P61769). The assay is described as follows: cell-based or functional assay.

For the substance “1G4 mut1 (G70A): WT 1G4 alpha chain + beta chain G70A (TCR)”, the values for the IFN-γ secreted by transfected CD4+ T cells (Patient) with peptide-pulsed T2 cells in assay [1] and in assay [2] were below 30 pg/mL and 6380 pg/mL, respectively. The IFN-γ secreted by transfected CD8+ T cells (Patient) with peptide-pulsed T2 cells is below 30 pg/mL in assay [1] and 10200 pg/mL in assay [2].
In assay [1], “1G4 mut2 (A71I): WT 1G4 alpha chain + beta chain A71I (TCR)” displayed an IFN-γ secreted by transfected CD4+ T cells (Patient) with peptide-pulsed T2 cells below 30 pg/mL and an IFN-γ secreted by transfected CD8+ T cells (Patient) with peptide-pulsed T2 cells below 30 pg/mL. In assay [2], the IFN-γ secreted by transfected CD4+ T cells (Patient) with peptide-pulsed T2 cells came to 8970 pg/mL and the IFN-γ secreted by transfected CD8+ T cells (Patient) with peptide-pulsed T2 cells is 10100 pg/mL.
In assay [1], “1G4 mut3 (G70A/A71I): WT 1G4 alpha chain + beta chain G70A/A71I (TCR)” registered an IFN-γ secreted by transfected CD4+ T cells (Patient) with peptide-pulsed T2 cells below 30 pg/mL and an IFN-γ secreted by transfected CD8+ T cells (Patient) with peptide-pulsed T2 cells below 30 pg/mL. In assay [2], this substance had an IFN-γ secreted by transfected CD4+ T cells (Patient) with peptide-pulsed T2 cells of 10700 pg/mL and an IFN-γ secreted by transfected CD8+ T cells (Patient) with peptide-pulsed T2 cells of 8860 pg/mL.
